PMC11150526, “Pseudomonas aeruginosa gene PA4880 encodes a Dps-like protein with a Dps fold, bacterioferritin-type ferroxidase centers, and endonuclease activity” (Frontiers in Molecular Biosciences, 2024)

Key:
[1] = molecular target: the molecule itself; assay: SEC; calibrated Superdex 200 Increase 10/300 GL; 50 mM Tris pH 7.5, 1 mM MgSO4; also run after titration with Fe2+ (0 h and 24 h), and after MgSO4 was added back to disassembled protein (only partial reassembly)
[2] = molecular target: the molecule itself; assay: crystal structure; Pa DpsL-dimer (also called Pa DpsL-monomer); protein purified without MgSO4; crystals from 8% PEG 6,000, 100 mM MES pH 6.0, 100 mM MgCl2; 1.3 A; one molecule in the asymmetric unit, dimer by crystallographic symmetry (PISA)

B1: Pseudomonas aeruginosa Dps-like protein (product of gene PA4880) (natural protein, Pseudomonas aeruginosa PAO1, UniProt Q9HUT3 1-177, looked up)
chain: MTTVQLTDVQTLRDRARKNIQEGAVTEGYSADRQTVLRLLNEALATELVCFLRYKRHYFMATGLKASIAAAEFLEHANQEMQHADQLAERIMQLGGEPDFNPRGLEERSHAEYVEGKTLKDMVTENLIAERIAIDSYREIITYLGNDDPTTRRIFEEILAQEEEHADDMADILDDLA
notes: Product of gene PA4880 of P. aeruginosa PAO1 (annotated as probable bacterioferritin); The gene was synthesised with silent, codon-optimising mutations and cloned NdeI/BamHI into pET11a; The structures number residues from Met1; No tag is mentioned; As isolated it carries di-iron ferroxidase centres (8-10 Fe per 12-mer); also called Pa DpsL; PaDpsL; source: E. coli BL21-Gold (DE3), pET11a, …
[1]
  stoichiometry N: 12
[2]
  stoichiometry N: 2
